Test results reported in paper PMC4872100.
pKd: −log10 of the molar value.

Tests used:
Assay in all cases: SPR
[1] = target: human uracil DNA glycosylase (human UDG) (human) (UniProt P13051)
[2] = target: Epstein-Barr virus (human herpesvirus 4) uracil DNA glycosylase (EBVUDG) (Epstein-Barr virus (EBV; human herpesvirus 4)) (UniProt P12888)
[3] = target: Mycobacterium tuberculosis uracil DNA glycosylase (TBUDG) (Mycobacterium tuberculosis) (UniProt P9WFQ9)

| Substance | pKd [1] | koff [1] [s⁻¹] | kon [1] [M⁻¹ s⁻¹] | pKd [2] | koff [2] [s⁻¹] | kon [2] [M⁻¹ s⁻¹] | pKd [3] | ka1 (two-state model, step 1) [3] [M⁻¹ s⁻¹] | ka2 (two-state model, step 2) [3] [M⁻¹ s⁻¹] | kd1 (two-state model, step 1) [3] [s⁻¹] |
| --- | --- | --- | --- | --- | --- | --- | --- | --- | --- | --- |
| SAUGI E24AQ52R (natural protein) | 8.48 | 0.00529 | 1.6e+06 |  |  |  |  |  |  |  |
| Staphylococcus aureus uracil-DNA glycosylase inhibitor SAUGI (natural protein) | 8.71 | 0.00361 | 1.85e+06 | 9.32 | 0.0012 | 2.54e+06 | 6.70 | 4.32e+06 | 20 | 1.39 |
